This is an account of results in paper PMC10786891, “Massively parallel profiling of RNA-targeting CRISPR-Cas13d”.

B1: target 1 MT 5'PFS UUA 3'PFS UUA (mixed)
RNA 1: CACCCGUGCAAAAAUGCAGGGGUCUAAAACUGAGCGGAUAACCUCUCUAUGG
RNA 2: GGGAAUGGAUCCACAUCUACGAAUUCUUACCAUAGAGAGGUUAUCCGCUCAUUAAGAUCGGAAGAGCACACGU
B2: target 1 MT 5'PFS UCG 3'PFS ACA (mixed)
RNA 1: B1 RNA 1
RNA 2: B1 RNA 2 with U28C, A29G, U52A, U53C
B3: target 1 MT 5'PFS GGA 3'PFS UGC (mixed)
RNA 1: B1 RNA 1
RNA 2: B1 RNA 2 with U27G, U28G, U53G, A54C
B4: target 1 MT 5'PFS UCC 3'PFS UAG (mixed)
RNA 1: B1 RNA 1
RNA 2: B1 RNA 2 with U28C, A29C, U53A, A54G
B5: target 1 MT 5'PFS UUA 3'PFS UUG (mixed)
RNA 1: B1 RNA 1
RNA 2: B1 RNA 2 with A54G
B6: target 1 MT 5'PFS GGA 3'PFS UGA (mixed)
RNA 1: B1 RNA 1
RNA 2: B1 RNA 2 with U27G, U28G, U53G
B7: target 1 MT 5'PFS UGC 3'PFS UAU (mixed)
RNA 1: B1 RNA 1
RNA 2: B1 RNA 2 with U28G, A29C, U53A, A54U
B8: target 1 MT 5'PFS GGA 3'PFS AUU (mixed)
RNA 1: B1 RNA 1
RNA 2: B1 RNA 2 with U27G, U28G, U52A, A54U
B9: target 1 insC 3' of 12,insC 3' of 8 (mixed)
RNA 1: B1 RNA 1
RNA 2: GGGAAUGGAUCCACAUCUACGAAUUCGUACCAUAGAGAGGCUUAUCCCGCUCACCGAGAUCGGAAGAGCACACGU
B10: target 1 MT 5'PFS GUG 3'PFS CCA (mixed)
RNA 1: B1 RNA 1
RNA 2: B1 RNA 2 with U27G, A29G, U52C, U53C
B11: target 1 insU 3' of 18,insA 3' of 12 (mixed)
RNA 1: B1 RNA 1
RNA 2: GGGAAUGGAUCCACAUCUACGAAUUCGUACCAUAUGAGAGGAUUAUCCGCUCACCGAGAUCGGAAGAGCACACGU
B12: target 1 MT 5'PFS GUG 3'PFS CUG (mixed)
RNA 1: B1 RNA 1
RNA 2: B1 RNA 2 with U27G, A29G, U52C, A54G
B13: target 1 MT 5'PFS GGA 3'PFS UGU (mixed)
RNA 1: B1 RNA 1
RNA 2: B1 RNA 2 with U27G, U28G, U53G, A54U
B14: target 1 MT 5'PFS UCC 3'PFS UAU (mixed)
RNA 1: B1 RNA 1
RNA 2: B1 RNA 2 with U28C, A29C, U53A, A54U
B15: target 1 MT 5'PFS GAG 3'PFS ACG (mixed)
RNA 1: B1 RNA 1
RNA 2: B1 RNA 2 with U27G, U28A, A29G, U52A, U53C, A54G
B16: target 1 insU 3' of 2,insC 3' of 1 (mixed)
RNA 1: B1 RNA 1
RNA 2: B9 RNA 2 with C41U, U43A, A44U, U45C, C47G, G49U, C52A, A53C
B17: target 1 MT 5'PFS GCG 3'PFS ACC (mixed)
RNA 1: B1 RNA 1
RNA 2: B1 RNA 2 with U27G, U28C, A29G, U52A, U53C, A54C
B18: target 1 MT 5'PFS UUA 3'PFS UUC (mixed)
RNA 1: B1 RNA 1
RNA 2: B1 RNA 2 with A54C
B19: target 1 MT 5'PFS AAU 3'PFS UGA (mixed)
RNA 1: B1 RNA 1
RNA 2: B1 RNA 2 with U27A, U28A, A29U, U53G
B20: target 1 del5,del13 (mixed)
RNA 1: B1 RNA 1
RNA 2: GGGAAUGGAUCCACAUCUACGAAUUCGUACCAUAGAGAGUUAUCCCUCACCGAGAUCGGAAGAGCACACGU
B21: target 1 MT 5'PFS CAU 3'PFS UCU (mixed)
RNA 1: B1 RNA 1
RNA 2: B1 RNA 2 with U27C, U28A, A29U, U53C, A54U
B22: target 1 MT 5'PFS GAG 3'PFS ACU (mixed)
RNA 1: B1 RNA 1
RNA 2: B1 RNA 2 with U27G, U28A, A29G, U52A, U53C, A54U
B23: target 1 MT 5'PFS CCA 3'PFS UAA (mixed)
RNA 1: B1 RNA 1
RNA 2: B1 RNA 2 with U27C, U28C, U53A
B24: target 1 MT 5'PFS UCG 3'PFS ACC (mixed)
RNA 1: B1 RNA 1
RNA 2: B1 RNA 2 with U28C, A29G, U52A, U53C, A54C
B25: target 1 MT 5'PFS UUG 3'PFS UUG (mixed)
RNA 1: B1 RNA 1
RNA 2: B1 RNA 2 with A29G, A54G
B26: target 1 MT 5'PFS CAU 3'PFS ACU (mixed)
RNA 1: B1 RNA 1
RNA 2: B1 RNA 2 with U27C, U28A, A29U, U52A, U53C, A54U
B27: target 1 MT 5'PFS CAA 3'PFS UGA (mixed)
RNA 1: B1 RNA 1
RNA 2: B1 RNA 2 with U27C, U28A, U53G
B28: target 1 MT 5'PFS GAG 3'PFS ACA (mixed)
RNA 1: B1 RNA 1
RNA 2: B1 RNA 2 with U27G, U28A, A29G, U52A, U53C
B29: target 1 MT 5'PFS GUG 3'PFS CCU (mixed)
RNA 1: B1 RNA 1
RNA 2: B1 RNA 2 with U27G, A29G, U52C, U53C, A54U
B30: target 1 MT 5'PFS GUG 3'PFS CCC (mixed)
RNA 1: B1 RNA 1
RNA 2: B1 RNA 2 with U27G, A29G, U52C, U53C, A54C
B31: target 1 MT 5'PFS GUG 3'PFS CCG (mixed)
RNA 1: B1 RNA 1
RNA 2: B1 RNA 2 with U27G, A29G, U52C, U53C, A54G

Positions count from the first letter of the chain named.

This data set addresses T1, EsCas13d, nuclease-dead (Eubacterium siraeum, UniProt B0MS50, R295A;H300A;R849A;H854A).
T1 sequence: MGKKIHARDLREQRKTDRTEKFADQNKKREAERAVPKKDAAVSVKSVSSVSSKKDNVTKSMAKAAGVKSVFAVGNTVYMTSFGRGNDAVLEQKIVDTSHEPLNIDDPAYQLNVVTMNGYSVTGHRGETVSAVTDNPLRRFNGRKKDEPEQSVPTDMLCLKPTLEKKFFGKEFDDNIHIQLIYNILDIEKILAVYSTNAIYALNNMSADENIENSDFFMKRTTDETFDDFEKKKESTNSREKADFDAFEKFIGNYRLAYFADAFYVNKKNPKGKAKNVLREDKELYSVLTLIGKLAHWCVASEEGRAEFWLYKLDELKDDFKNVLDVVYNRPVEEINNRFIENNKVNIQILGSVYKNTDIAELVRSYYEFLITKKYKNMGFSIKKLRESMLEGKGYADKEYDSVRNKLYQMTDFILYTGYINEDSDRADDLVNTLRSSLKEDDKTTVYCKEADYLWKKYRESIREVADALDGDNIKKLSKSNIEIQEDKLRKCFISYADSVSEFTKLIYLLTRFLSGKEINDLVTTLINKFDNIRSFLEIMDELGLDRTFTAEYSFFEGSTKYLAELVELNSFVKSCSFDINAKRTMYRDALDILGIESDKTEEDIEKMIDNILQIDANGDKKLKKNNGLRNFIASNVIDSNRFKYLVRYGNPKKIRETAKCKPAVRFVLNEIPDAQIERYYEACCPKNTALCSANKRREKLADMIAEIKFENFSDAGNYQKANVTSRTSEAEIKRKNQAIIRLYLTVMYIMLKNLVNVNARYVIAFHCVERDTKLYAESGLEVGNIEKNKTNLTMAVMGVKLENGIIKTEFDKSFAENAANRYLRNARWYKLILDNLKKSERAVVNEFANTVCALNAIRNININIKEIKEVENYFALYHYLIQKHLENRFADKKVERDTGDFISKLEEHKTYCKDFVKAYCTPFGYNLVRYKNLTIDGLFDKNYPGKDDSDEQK
The data set can be described thus: crRNA (strand 1, pre-loaded); Mg2+; 40 mM Tris-HCl pH 7.5, 150 mM NaCl, 6 mM MgCl2, 1 mM DTT, 0.1% Tween-20, 0.2 mg/ml BSA; 25 C; 10 min per concentration, then washed. The conditions noted are these: tags: His6-TwinStrep-SUMO cleaved; N-terminal SNAP kept (SNAP-Surface 488); label: 3' end held by stalled T7 RNA polymerase.
As for B1, binding was put at a Kd of 30.5 ± 5 nM. Molecule B2 gave an equilibrium dissociation constant (Kd) of 36 ± 8 nM.

The molecule B3 gave a Kd of 8.3 ± 1.1 nM. Compared with the last molecule, the Kd is about 4.3-fold lower.

The molecule B4 showed a Kd of 49 ± 22.5 nM. B5 returned a Kd of 11.8 ± 1.2 nM. The result for B6 reads 16.2 ± 3.15 nM; that for B7, 13.8 ± 5 nM; that for B8, 17.6 ± 3.55 nM. Take B9: the Kd amounted to 32.1 ± 2.8 nM. As for B10, the figure is 46 ± 7.5 nM; as for B11, 63 ± 14 nM; as for B12, 10.3 ± 0.6 nM. B13 registered a Kd of 48 ± 13 nM. As to B14, the Kd was about 12.6 nM.

In turn, B15 came in with a Kd of 32 ± 8.5 nM. The molecule B16 yielded a Kd of 11.1 ± 0.5 nM. This Kd is about 2.9-fold lower than that of the molecule before. Consider B17, for which the affinity, expressed as Kd, was 20 ± 8.5 nM. With B18, binding was characterised by a dissociation constant (Kd) of 17.5 ± 3.9 nM.

With B19, binding was put at a Kd of 61 ± 17 nM. In turn, B20 gave a Kd of 11.5 ± 0.9 nM. This Kd lies about 5.3-fold lower than the previous one.

Consider B21, for which the Kd was about 65 nM. For the molecule B22, binding was characterised by a dissociation constant (Kd) of 24.9 ± 4.75 nM. For B23, the affinity, expressed as Kd, was 3.85 ± 1.9 nM. Compared with the last molecule, the Kd is about 6.5-fold lower. Turning to B24, the Kd was found to be 32.5 ± 14 nM. The result for B25 reads 18.2 ± 3.2 nM; that for B26, 61.5 ± 26 nM.

For the molecule B27, the Kd is about 41 nM. B28 returned a Kd of about 43 nM. On to B29, for which the Kd worked out at 10.6 ± 1.1 nM. B30 registered a Kd of 23 ± 4 nM. With B31, the Kd was determined as 11.7 ± 1.05 nM. This Kd lies about 2-fold lower than the previous one.
